Measurements reported in patent US6919086B1, “Graminae pollen allergen mutants for specific immunotherapy, and production and use of the same” (Merck Patent Gesellschaft mit, priority 1997, dated 2005).
Each block holds one binder with its values, some of them ahead of it.

Legend:
[1] = molecular target: specific IgE on basophils from the blood of allergic patient; experiment: cell-based or functional assay
[2] = molecular target: IgE antibodies of the individual allergic patient serum II/17; experiment: EAST inhibition, individual serum II/17
[3] = molecular target: IgE antibodies of the allergic patient serum pool Bor 18/100 (20 donors); experiment: EAST inhibition, serum pool Bor 18/100
[4] = molecular target: IgE antibodies of the individual allergic patient serum II/3; experiment: EAST inhibition, individual serum II/3
[5] = molecular target: IgE antibodies of the allergic patient serum pool We 6/97; experiment: EAST inhibition, serum pool We 6/97
[6] = molecular target: IgE antibodies of the individual allergic patient serum II/12; experiment: EAST inhibition, individual serum II/12

concentration required to bring about a 30% histamine release from basophils, against wild type rPh1 p 5b [1]: 500 fold higher
allergenic potency (Prel) at 25% inhibition (relative to native Phl p 5b) [2]: 2.9e-12
B1: rPhl p 5b deletion mutant DM2 (deletion F51-G178, D49L, K50A) (protein)
chain: ADAGYAPATPAAAGAAAGKATTEEQKLIEDINVGFKAAVAAAASVPAALAGAYDTYKCIPSLEAAVKQAYAATVAAAPQVKYAVFEAALTKAITAMSEVQKVSQPATGAATVAAGAATTAAGAASGAATVAAGGYKV

IC50 [3]: 5 nM
allergenic potency (Prel) at 25% inhibition (relative to native Phl p 5b) [3]: 1.71
allergenic potency (Prel) at 50% inhibition (relative to native Phl p 5b) [3]: 0.841
inhibition value (inhibitor concentration at 25% inhibition) [3]: 2e-10 mol/L
IC50 [4]: 14 nM
allergenic potency (Prel) at 25% inhibition (relative to native Phl p 5b) [4]: 0.903
allergenic potency (Prel) at 50% inhibition (relative to native Phl p 5b) [4]: 0.419
inhibition value (inhibitor concentration at 25% inhibition) [4]: 5.6e-10 mol/L
IC50 [5]: 1400 nM
allergenic potency (Prel) at 25% inhibition (relative to native Phl p 5b) [5]: 1.7
allergenic potency (Prel) at 50% inhibition (relative to native Phl p 5b) [5]: 0.44
inhibition value (inhibitor concentration at 25% inhibition) [5]: 3e-10 mol/L
IC50 [2]: 4.7 nM
allergenic potency (Prel) at 25% inhibition (relative to native Phl p 5b) [2]: 1.04
allergenic potency (Prel) at 50% inhibition (relative to native Phl p 5b) [2]: 0.545
inhibition value (inhibitor concentration at 25% inhibition) [2]: 2.1e-10 mol/L
IC50 [6]: 73 nM
allergenic potency (Prel) at 25% inhibition (relative to native Phl p 5b) [6]: 0.597
allergenic potency (Prel) at 50% inhibition (relative to native Phl p 5b) [6]: 0.093
inhibition value (inhibitor concentration at 25% inhibition) [6]: 8.7e-10 mol/L
B2: recombinant Phl p 5b (wild type) (protein)
chain: ADAGYAPATPAAAGAAAGKATTEEQKLIEDINVGFKAAVAAAASVPAADKFKTFEAAFTSSSKAAAAKAPGLVPKLDAAYSVAYKAAVGATPEAKFDSFVASLTEALRVIAGALEVHAVKPVTEEPGMAKIPAGELQIIDKIDAAFKVAATAAATAPADDKFTVFEAAFNKAIKESTGGAYDTYKCIPSLEAAVKQAYAATVAAAPQVKYAVFEAALTKAITAMSEVQKVSQPATGAATVAAGAATTAAGAASGAATVAAGGYKV

IC50 [3]: 28 nM
allergenic potency (Prel) at 25% inhibition (relative to native Phl p 5b) [3]: 0.039
allergenic potency (Prel) at 50% inhibition (relative to native Phl p 5b) [3]: 0.0015
inhibition value (inhibitor concentration at 25% inhibition) [3]: 8.6e-09 mol/L
IC50 [4]: 17 nM
allergenic potency (Prel) at 25% inhibition (relative to native Phl p 5b) [4]: 0.042
allergenic potency (Prel) at 50% inhibition (relative to native Phl p 5b) [4]: 0.0035
inhibition value (inhibitor concentration at 25% inhibition) [4]: 1.2e-08 mol/L
concentration required to bring about a 30% histamine release from basophils, against wild type rPh1 p 5b [1]: 20 fold higher
IC50 [5]: 17000 nM
allergenic potency (Prel) at 25% inhibition (relative to native Phl p 5b) [5]: 0.022
allergenic potency (Prel) at 50% inhibition (relative to native Phl p 5b) [5]: 0.0004
inhibition value (inhibitor concentration at 25% inhibition) [5]: 2.3e-08 mol/L
IC50 [2]: 2 nM
allergenic potency (Prel) at 25% inhibition (relative to native Phl p 5b) [2]: 0.033
allergenic potency (Prel) at 50% inhibition (relative to native Phl p 5b) [2]: 0.001
inhibition value (inhibitor concentration at 25% inhibition) [2]: 6.5e-09 mol/L
allergenic potency (Prel) at 25% inhibition (relative to native Phl p 5b) [6]: 3.4e-05
allergenic potency (Prel) at 50% inhibition (relative to native Phl p 5b) [6]: 1e-10
inhibition value (inhibitor concentration at 25% inhibition) [6]: 1.5e-05 mol/L
B3: rPhl p 5b deletion mutant DM1 (deletion K50-P132, D49L) (protein)
chain: ADAGYAPATPAAAGAAAGKATTEEQKLIEDINVGFKAAVAAAASVPAALAGELQIIDKIDAAFKVAATAAATAPADDKFTVFEAAFNKAIKESTGGAYDTYKCIPSLEAAVKQAYAATVAAAPQVKYAVFEAALTKAITAMSEVQKVSQPATGAATVAAGAATTAAGAASGAATVAAGGYKV
